116 sequences from the supplement of paper PMC10724198 can be followed below.

± gives the standard deviation of the averaged measurements.
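Also: PSI is a weighted mean of sequencing reads over stability bins, variants kept only with over 10 reads, mCherry proximal and sfGFP distal, peptide attached via GGGS linker.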

For this data set, the system named is Saccharomyces cerevisiae. Nature of the data set: protein stability index of tFT-peptide fusion (C-terminal peptide) (PSI (0-1 scale)); higher = more stable (slower turnover). The conditions noted are these: genetic background: wild type; temperature: 30 C.
SSPPPHPPPVPR: the protein stability index is 0.688 ± 0.1.
As for SSPPRPLPPHHT, the protein stability index was 0.705 ± 0.059.
In the case of SSPSFPSPLPPY it was 0.701 ± 0.074.
As to SSPSYVPVSYSQ, the protein stability index worked out at 0.708 ± 0.066.
In the case of SSRAPSLPPPPP it was 0.674 ± 0.025.
As for SSRCLPPFPLCP, the protein stability index turned out to be 0.736 ± 0.11.
In the case of SSRLALVLLPPG it was 0.649 ± 0.042; in that of SSRRYSGLSFTS, 0.702 ± 0.015; in that of SSRVLFRVSVLR, 0.646 ± 0.09.
Next, SSSFFLFPVGFF: 0.784 ± 0.14.
Next, SSSHRPTAPSSR: 0.669 ± 0.05; SSSPLPPPSPPP: 0.673 ± 0.032; SSSPTPLPRSLP: 0.671 ± 0.024.
SSSTPPVHVPIS registered a protein stability index of 0.647 ± 0.083.
In the case of SSSVSYFLHYCI it was 0.606 ± 0.038; in that of SSSWILCRFGRS, 0.664 ± 0.041.
Next, SSTCSPPRLSQS: 0.679 ± 0.046; SSVEREEEGGGG: 0.676 ± 0.11; SSVFRSYTSVLS: 0.686 ± 0.076.
In the case of SSVGLRTRRTAR it was 0.638 ± 0.081; in that of SSVILPLRRWPP, 0.648 ± 0.094; in that of SSVVPITLPAFL, 0.707 ± 0.019.
For the sequence STALVFSDSALL, the protein stability index was found to be 0.694 ± 0.061.
Take STDRPLRLHPGG: the protein stability index was 0.622 ± 0.041.
In turn, STEFCRIIYRGP showed a protein stability index of 0.681 ± 0.023.
STICQRSTSGKG showed a protein stability index of 0.657 ± 0.031.
Next, STLAPRVYLRLR: 0.676 ± 0.032; STPLLLSPPLFC: 0.649 ± 0.04.
Next, STPSMGSMTRLE: 0.731 ± 0.041; STPSPPPAPRSP: 0.708 ± 0.015; STPVEATQDVAR: 0.724 ± 0.0083.
In the case of STQGAFHFLVSL it was 0.679 ± 0.015; in that of STRFVRNEFGVS, 0.665 ± 0.035.
Consider STVFAICQVLPI, for which the protein stability index stood at 0.6592 ± 0.0021.
In the case of STVGSKLCWESS it was 0.682 ± 0.072; in that of SVCEWSRVGIRL, 0.6476 ± 0.0056; in that of SVETVSSSSVAD, 0.656 ± 0.057.
In the case of SVFERDWTGGEV it was 0.7184 ± 0.00085; in that of SVGFVGVGCRGR, 0.707 ± 0.025; in that of SVGGVGGAVGGG, 0.663 ± 0.014.
In the case of SVGLTGHGTRGV it was 0.571.
Turning to SVGPWVSSGGFR, the protein stability index is 0.6664 ± 0.0048.
In the case of SVHAMDCNGYAN it was 0.643 ± 0.013.
As for SVLRWAVLGQTR, the protein stability index was found to be 0.728 ± 0.18.
Next, SVLSVAIRAPTQ: 0.691 ± 0.093; SVLVLPVLFLED: 0.6884 ± 0.004.
For the sequence SVMFSSLTRPPL, the protein stability index worked out at 0.65 ± 0.11.
Next, SVPGLELGLPLR: 0.675 ± 0.061; SVPRPPPPRAPL: 0.646 ± 0.17.
SVRCPPLSPRPP showed a protein stability index of 0.667 ± 0.036.
For the sequence SVRLTYQNIIVN, the protein stability index stood at 0.583 ± 0.02.
Next, SVSRGAPSGSLG: 0.688 ± 0.067; SVSRGSWVWGRL: 0.723 ± 0.061.
On to SVTTNDQLPCHS, for which the protein stability index was determined as 0.691 ± 0.026.
In the case of SVVGHGVCGGRG it was 0.649 ± 0.11; in that of SVVSSDVGGGRI, 0.5391 ± 0.0047; in that of SVYGIASRAQLL, 0.64 ± 0.11.
Next, SWCRCLALLDCT: 0.659 ± 0.028; SWGGGGGGAGRG: 0.653 ± 0.017.
In the case of SWPLIFSLPNFI it was 0.716 ± 0.026.
SWPMLSVLADER displayed a protein stability index of 0.717 ± 0.04.
Next, SWPPCPSGRGRG: 0.727 ± 0.029; SWPTRRLVVHGL: 0.655 ± 0.0071.
The sequence SWRRRNGNCERR yielded a protein stability index of 0.646 ± 0.063.
In the case of SYDNPPDTSRPR it was 0.768 ± 0.046; in that of SYFVIPGLSLSV, 0.568 ± 0.056.
In the case of SYGADSVSYLKT it was 0.651 ± 0.033; in that of SYGPKMAKAVFR, 0.706 ± 0.056.
Next, SYKAFVFSSDVW: 0.77 ± 0.045; SYKIDYIDIRVG: 0.59 ± 0.029.
On to SYLHALSRPSLL, for which the protein stability index was 0.734 ± 0.03.
In the case of SYLPLGTVLMLG it was 0.681 ± 0.032; in that of SYPDYFDSDSSD, 0.716 ± 0.011; in that of SYSPPPLPPHPP, 0.55109 ± 0.00031.
In the case of SYTAPPLLRSSY it was 0.679 ± 0.015.
Next, TAQKHQQPVQLH: 0.715 ± 0.028; TARDLEGTRAKG: 0.638 ± 0.028.
TASAAKGAAPQQ displayed a protein stability index of 0.676 ± 0.016.
Next, TASFVSSGLLAF: 0.586 ± 0.012; TASLQGCANGQS: 0.674 ± 0.012.
Turning to TAVPRARRRVVR, the protein stability index was 0.712 ± 0.018.
TCLMLSCRSFLW returned a protein stability index of 0.63 ± 0.018.
In turn, TDFRSGLIFIIV yielded a protein stability index of 0.544 ± 0.045.
Next, TDLGYGRLGGWV: 0.682 ± 0.083; TEIKILNKKKSR: 0.7294 ± 0.0043.
In the case of TELSLHFAGYAE, the protein stability index turned out to be 0.74 ± 0.031.
In the case of TERGRLVWYCMR it was 0.674 ± 0.077; in that of TETAHNFPYCCD, 0.676 ± 0.025; in that of TEVRHMKGVAWW, 0.6919 ± 0.0044.
In the case of TFENLFRLPWFK it was 0.699 ± 0.052; in that of TFLYLSGRVVGL, 0.651 ± 0.013; in that of TFPGRLPLTRLP, 0.726 ± 0.038.
Next, TFPPLSPSPPLS: 0.727 ± 0.13.
The sequence TFSVPLPPPLAP gave a protein stability index of 0.6573 ± 0.0038.
As for TFVVGTRVFSCD, the protein stability index turned out to be 0.631 ± 0.096.
Regarding TFYLHSLLPTSF, the protein stability index was 0.6913 ± 0.0024.
Next, TGCGSRSSRTKT: 0.864 ± 0.021.
In turn, TGCRAVPDLNAD gave a protein stability index of 0.695 ± 0.018.
As to TGIGPWVSPSIC, the protein stability index was determined as 0.667 ± 0.018.
Next, TGISPWPPSERR: 0.808 ± 0.19; TGLYLRCVWGVQ: 0.507 ± 0.046; TGNARCYFGKSV: 0.692 ± 0.011.
Next, TGNQCGNGYSWR: 0.696 ± 0.013; TGPIIPSDNRFL: 0.692 ± 0.04; TGRGGAPRAKEE: 0.699 ± 0.0039.
Next, TGSLSSTCPPAT: 0.717 ± 0.075; THHPQRPPRTLP: 0.745 ± 0.062; THHSDLHPRTAP: 0.697 ± 0.033.
For THLDKLYPKEHT, the protein stability index was 0.689 ± 0.054.
Next, THPPLPPYLSPP: 0.727 ± 0.015.
In the case of THYKLFGSLNLL it was 0.634 ± 0.035.
Next, TIPSHPLLPTLC: 0.648 ± 0.049; TISFASLLPPPF: 0.723 ± 0.048.
On to TISHPLGPFSVH, for which the protein stability index turned out to be 0.66 ± 0.042.
Next, TIVRTTLLEIWR: 0.619 ± 0.04; TKKDNKYNRNKK: 0.656 ± 0.029.
